T1: Orencia
T1 sequence (chain, INN chains, looked up, looked up): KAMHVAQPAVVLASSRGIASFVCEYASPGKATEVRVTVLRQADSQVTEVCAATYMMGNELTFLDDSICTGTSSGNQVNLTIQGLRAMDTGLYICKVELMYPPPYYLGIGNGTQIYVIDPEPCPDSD

B1: C4-302mat-3-100-44 (peptide, not shown: large carriers; small tags and cut ends)
chain: GGCLHPFLPIVSHHFCGR
notes: MBP fusion; also called clone #10; No. #10

Each binder was assayed against T1, Orencia (assay: ELISA, signal on Orencia over SA).
Method: (§1) 10 μL of E. coli cultured medium was added with 90 μL of PBS and 40 μL of lysis reagent (20 μL BugBuster Protein Extraction Reagent (Novagen), 20 μL Lysozyme solution 2.5 mg/mL) to lyse E. coli cells for 1 hour at room temperature. […] In parallel, antigen protein was immobilized overnight at 4° C. in 384-well plates at 100 ng/20 μL per well, and each well was washed twice with 100 μL/well of TBST, added with 100 μL/well of 5% skim milk solution (TBST) for blocking for 1 hour at room temperature, and washed twice with 100 μL/well of TBST to obtain antigen-immobilized plates. 20 μL/well of blocking-treated E. coli extract was added to the antigen-immobilized plates and gently stirred at room temperature using a plate mixer. […] The plates were washed 5 times with 100 μL/well of TBST, and binding of cyclic peptides to the antigen was detected by 20 μL/well of chromogenic substrate (0.4 mg/mL 3,3′,5,5′-Tetramethyl-benzidine, 0.01% hydrogen peroxide). After 15 minutes of reaction at room temperature, the reaction was stopped with 20 μL/well of 2N HCl, and absorbance at 450 nm was measured using a plate reader (infinite F200: TECAN) (Table 5).
(§2) An Error-Prone Library was prepared based on H12SSI-Ctla4-3-02, and Affinity Maturation selection experiments were performed. The cyclic peptide genes obtained in each round were subcloned, 94 single colonies were cultured in 96-well plates, and the CTLA-4 binding activity of each MBP-fused cyclic peptide was examined by ELISA.
In the case of GGCLHPFLPVVSHHFCGD (peptide, not shown: large carriers; small tags and cut ends, MBP fusion; also called #8) [C4-302mat-2-1-2], the “S/N(SA)” value is reported as 23.5.
With B1 the “S/N(SA)” value was 18.5.
In the case of GGCVHPFLQVVSHHFCGG (peptide, not shown: large carriers; small tags and cut ends, MBP fusion; also called #29) [C4-302mat-1-100-23], the “S/N(SA)” value is reported as 5.4.
GGCMHPYLPVISHHFCGR (peptide, not shown: large carriers; small tags and cut ends, MBP fusion; also called #16) [C4-302mat-3-100-12] was tested, and the “S/N(SA)” value was 19.4.
In the case of GGCMHPFLPVVSRHFCGG (peptide, not shown: large carriers; small tags and cut ends, MBP fusion; also called #24) [C4-302mat-3-1-5], the “S/N(SA)” value is reported as 5.9.
For GGCMHPFLLVASHHFCGV (peptide, not shown: large carriers; small tags and cut ends, MBP fusion) [C4-302mat-2-1-37], the “S/N(SA)” value was 2.3.
GGCMHPFLPIVSHHFCGS (peptide, not shown: large carriers; small tags and cut ends, MBP fusion; also called #18) [C4-302mat-2-100-27] was tested, and the “S/N(SA)” value was 25.2.
In the case of GGCMHPFLPVVSRHFCGR (peptide, not shown: large carriers; small tags and cut ends, MBP fusion; also called #25) [C4-302mat-3-1-12], the “S/N(SA)” value is reported as 17.9.
In the case of GGCMHPFLPVVSHHFCRG (peptide, not shown: large carriers; small tags and cut ends, MBP fusion) [C4-302mat-2-100-18], the “S/N(SA)” value is reported as 16.1.
With GSCMHPFLPVASRHFCGR (peptide, not shown: large carriers; small tags and cut ends, MBP fusion; also called #23) [C4-302mat-3-1-31] the “S/N(SA)” value was 13.2.
In the case of GGCMHPYLLVASHHFCER (peptide, not shown: large carriers; small tags and cut ends, MBP fusion; also called #39) [C4-302mat-3-1-9], the “S/N(SA)” value is reported as 8.8.
For GGCMHPFLPVASHHFCGR (peptide, not shown: large carriers; small tags and cut ends, MBP fusion; also called #6) [C4-302mat-3-1-22], the “S/N(SA)” value was 18.9.
For GGCLHPFLPLVSHHFCGG (peptide, not shown: large carriers; small tags and cut ends, MBP fusion; also called #9) [C4-302mat-2-1-38], the “S/N(SA)” value was 16.4.
With GGCMHPFLPVASHHFCAG (peptide, not shown: large carriers; small tags and cut ends, MBP fusion) [C4-302mat-3-100-27] the “S/N(SA)” value was 16.6.
With GSCMHPFLLVASHHFCRG (peptide, not shown: large carriers; small tags and cut ends, MBP fusion; also called #38) [C4-302mat-2-100-33] the “S/N(SA)” value was 2.3.
In the case of GGCMHPFLQVVSHHFCGS (peptide, not shown: large carriers; small tags and cut ends, MBP fusion; also called #26) [C4-302mat-2-1-35], the “S/N(SA)” value is reported as 17.9.
GGCMHPFLLTVSRHFCGG (peptide, not shown: large carriers; small tags and cut ends, MBP fusion; also called #44) [C4-302mat-3-1-11] was tested, and the “S/N(SA)” value was 8.1.
For GGCMHPFLPVVSHHFCGR (peptide, not shown: large carriers; small tags and cut ends, MBP fusion) [C4-302mat-3-100-37], the “S/N(SA)” value was 18.
For GGCMHPFLPIASLHFCGR (peptide, not shown: large carriers; small tags and cut ends, MBP fusion; also called #20) [C4-302mat-3-1-23], the “S/N(SA)” value was 19.7.
For GGCMHPYLPVISHHFCGG (peptide, not shown: large carriers; small tags and cut ends, MBP fusion; also called #15) [C4-302mat-2-1-27], the “S/N(SA)” value was 13.7.
For GGCMHPFLPVVSHHFCGA (peptide, not shown: large carriers; small tags and cut ends, MBP fusion) [C4-302mat-3-1-48], the “S/N(SA)” value was 14.6.
In the case of GGCVHPFLPVVSHHFCRG (peptide, not shown: large carriers; small tags and cut ends, MBP fusion; also called #12) [C4-302mat-3-100-20], the “S/N(SA)” value is reported as 3.7.
GGCMHPFLLVVSRHFCGR (peptide, not shown: large carriers; small tags and cut ends, MBP fusion) [C4-302mat-2-100-40] was tested, and the “S/N(SA)” value was 3.9.

What follows are binders tested against T1, Orencia (assay: ELISA, MBP fusion in E. coli lysate on Orencia).
Method: as §1, §2
GGCLHPFLPVVSHHFCGD (peptide, not shown: large carriers; small tags and cut ends, MBP fusion; also called #8) [C4-302mat-2-1-2] was tested, and the “ELISA A450” value was 1.2.
With B1 the “ELISA A450” value was 1.14.
GGCVHPFLQVVSHHFCGG (peptide, not shown: large carriers; small tags and cut ends, MBP fusion; also called #29) [C4-302mat-1-100-23] was tested, and the “ELISA A450” value was 0.25.
With GGCMHPYLPVISHHFCGR (peptide, not shown: large carriers; small tags and cut ends, MBP fusion; also called #16) [C4-302mat-3-100-12] the “ELISA A450” value was 1.18.
GGCMHPFLPVVSRHFCGG (peptide, not shown: large carriers; small tags and cut ends, MBP fusion; also called #24) [C4-302mat-3-1-5] was tested, and the “ELISA A450” value was 0.438.
For GGCMHPFLLVASHHFCGV (peptide, not shown: large carriers; small tags and cut ends, MBP fusion) [C4-302mat-2-1-37], the “ELISA A450” value was 0.12.
In the case of GGCMHPFLPIVSHHFCGS (peptide, not shown: large carriers; small tags and cut ends, MBP fusion; also called #18) [C4-302mat-2-100-27], the “ELISA A450” value is reported as 1.29.
With GGCMHPFLPVVSRHFCGR (peptide, not shown: large carriers; small tags and cut ends, MBP fusion; also called #25) [C4-302mat-3-1-12] the “ELISA A450” value was 0.95.
GGCMHPFLPVVSHHFCRG (peptide, not shown: large carriers; small tags and cut ends, MBP fusion) [C4-302mat-2-100-18] was tested, and the “ELISA A450” value was 0.857.
With GSCMHPFLPVASRHFCGR (peptide, not shown: large carriers; small tags and cut ends, MBP fusion; also called #23) [C4-302mat-3-1-31] the “ELISA A450” value was 0.868.
For GGCMHPYLLVASHHFCER (peptide, not shown: large carriers; small tags and cut ends, MBP fusion; also called #39) [C4-302mat-3-1-9], the “ELISA A450” value was 0.574.
In the case of GGCMHPFLPVASHHFCGR (peptide, not shown: large carriers; small tags and cut ends, MBP fusion; also called #6) [C4-302mat-3-1-22], the “ELISA A450” value is reported as 1.11.
In the case of GGCLHPFLPLVSHHFCGG (peptide, not shown: large carriers; small tags and cut ends, MBP fusion; also called #9) [C4-302mat-2-1-38], the “ELISA A450” value is reported as 0.807.
In the case of GGCMHPFLPVASHHFCAG (peptide, not shown: large carriers; small tags and cut ends, MBP fusion) [C4-302mat-3-100-27], the “ELISA A450” value is reported as 0.927.
In the case of GSCMHPFLLVASHHFCRG (peptide, not shown: large carriers; small tags and cut ends, MBP fusion; also called #38) [C4-302mat-2-100-33], the “ELISA A450” value is reported as 0.117.
In the case of GGCMHPFLQVVSHHFCGS (peptide, not shown: large carriers; small tags and cut ends, MBP fusion; also called #26) [C4-302mat-2-1-35], the “ELISA A450” value is reported as 0.904.
GGCMHPFLLTVSRHFCGG (peptide, not shown: large carriers; small tags and cut ends, MBP fusion; also called #44) [C4-302mat-3-1-11] was tested, and the “ELISA A450” value was 0.412.
GGCMHPFLPVVSHHFCGR (peptide, not shown: large carriers; small tags and cut ends, MBP fusion) [C4-302mat-3-100-37] was tested, and the “ELISA A450” value was 1.17.
In the case of GGCMHPFLPIASLHFCGR (peptide, not shown: large carriers; small tags and cut ends, MBP fusion; also called #20) [C4-302mat-3-1-23], the “ELISA A450” value is reported as 1.21.
For GGCMHPYLPVISHHFCGG (peptide, not shown: large carriers; small tags and cut ends, MBP fusion; also called #15) [C4-302mat-2-1-27], the “ELISA A450” value was 0.785.
In the case of GGCMHPFLPVVSHHFCGA (peptide, not shown: large carriers; small tags and cut ends, MBP fusion) [C4-302mat-3-1-48], the “ELISA A450” value is reported as 0.903.
For GGCVHPFLPVVSHHFCRG (peptide, not shown: large carriers; small tags and cut ends, MBP fusion; also called #12) [C4-302mat-3-100-20], the “ELISA A450” value was 0.221.
For GGCMHPFLLVVSRHFCGR (peptide, not shown: large carriers; small tags and cut ends, MBP fusion) [C4-302mat-2-100-40], the “ELISA A450” value was 0.204.
